According to US20040086945A1, “Hairless protein-interacting partner complexes and methods thereto” (The Procter & Gamble Company, priority 2002, published 2004):

T1: mouse HRt (hairless protein aa 490-1182) (Mus musculus, UniProt Q61645)
T1 construct: HR cDNA corresponding to the C-terminal half of HR protein (aa residues 490 to 1182, hereinafter HRt); expressed in transfected cells; host or cells: Saccharomyces cerevisiae PJ69-2A transformed with BD-HRt plasmid, mated with Y187 carrying the human brain cDNA library in pACT2
T1 sequence (Q61645 490-1182): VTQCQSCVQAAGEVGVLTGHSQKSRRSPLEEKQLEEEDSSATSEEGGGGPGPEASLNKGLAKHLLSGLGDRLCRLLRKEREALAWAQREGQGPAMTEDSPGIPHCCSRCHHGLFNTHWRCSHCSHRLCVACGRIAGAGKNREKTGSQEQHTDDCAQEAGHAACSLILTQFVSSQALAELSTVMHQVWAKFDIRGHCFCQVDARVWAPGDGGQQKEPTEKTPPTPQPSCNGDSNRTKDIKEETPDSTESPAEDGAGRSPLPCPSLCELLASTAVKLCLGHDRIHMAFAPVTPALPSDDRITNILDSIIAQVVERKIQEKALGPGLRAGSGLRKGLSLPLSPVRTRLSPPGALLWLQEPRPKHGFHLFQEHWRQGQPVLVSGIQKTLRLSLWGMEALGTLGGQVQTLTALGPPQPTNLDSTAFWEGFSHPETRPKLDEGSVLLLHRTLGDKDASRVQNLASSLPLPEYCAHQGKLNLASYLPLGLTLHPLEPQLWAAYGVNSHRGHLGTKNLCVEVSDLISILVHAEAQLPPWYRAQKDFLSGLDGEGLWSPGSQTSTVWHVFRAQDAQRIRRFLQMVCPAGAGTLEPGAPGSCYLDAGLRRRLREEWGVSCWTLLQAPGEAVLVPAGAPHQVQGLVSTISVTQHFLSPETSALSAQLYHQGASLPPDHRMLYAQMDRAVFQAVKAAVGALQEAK


The molecules below were run against T1, mouse HRt (hairless protein aa 490-1182) (assay: Yeast two-hybrid screen of BD-HRt against human brain cDNA library in AD vector, lacZ coloration on QDO-Xgal plates). Settings: BD-HRt(mouse) x human brain cDNA library in AD-vector.
Type: cell-based
Description: The present example provides for Hairless Protein (HR) interacting partners (HR-IP) using the yeast two-hybrid technology. […] Yeast cells expressing BD-HRt are mated with yeast cells pretransformed with human brain cDNA library in the activation domain (AD) vector.
Cloning of HRt into GAL4 binding domain (BD) yeast two-hybrid (Y2H) vector: The HRt insert from pET32a-HRt is excised as an Eco RI-Xho I fragment (there is a unique Xho I site just adjacent to HRt insert) and inserted at the Eco RI-Sal I sites of Y2H-BD vector pGBKT7 (Catalog No. K1612-B; a component of Matchmaker two-hybrid System 3 (Catalog No. K1612-1) BD Biosciences Clontech, Palo Alto, Calif.) to obtain pGBKT7-HRt in which HRt is fused in-frame to GAL 4 DNA BD (this plasmid is also designated BD-HRt).
Pretransformed human brain […] cDNA Library Screen for HRt interaction partners: Pretransformed human brain […] high-complexity GAL4 cDNA library that has already been amplified and introduced into yeast strain Y187 (MATα) is used to screen for HRt interacting proteins. […] The library host strain Y187 provides a third reporter gene (lacZ) for optional quantification of signal strength. The protocol as described in Clontech user manual (PT3183-1) is used. Briefly, the library is mixed with PJ69-2A strain that has been transformed with the BD-HRt plasmid in YPD medium containing adenine hemisulfate (0.004%) and kanamycin (0.005%) and incubated for 20-24 h at 30° C. The next day, the mating mixture is plated on Leu, Trp, His TDO that selects for two-hybrid interactions, and then the positive clones are screened for growth on Leu, Trp, His, Ade QDO, which is a more stringent condition for interaction. Colonies that grew well on QDO are also screened for lacZ expression by streaking on QDO-Xgal plates. Based on a visual assessment of colonies for the intensity of blue color, the clones are classified into high (H), medium (M), low (L) or very low (VL) categories.
The positive clones are expected to contain an AD-IP (interacting partner) that interacts with BD-HRt. To characterize IP, the sequence of IP is determined and matched to the human genome database. For this purpose, total DNA is isolated from the positive clones and PCR amplified with […] AD LD (long distance)-insert screening amplimers (Catalog No.9103-1; BD Biosciences Clontech, PaloAlto, Calif.). Reaction is conducted in 50 μl volume for 35 cycles using the conditions recommended with the Advantage2 PCR kit (Catalog No. K1910-1; BD Biosciences Clontech, PaloAlto, Calif.).

Row | XGAL (rate and intensity of coloration of colonies on Xgal) | Molecule
1 | M (M = Medium blue in 3-5 days) | Human Sphingolipid activator protein: human HRt interacting partner, GenBank M60255, SEQ ID NO:16/17 (PLPPPCLLPLPRPPLLPRLGRVVPLHPLQTSPVTGDCSRPRPRWMRWWTS; listed as Homo sapiens)
2 | L (L = Low blue in 5-7 days) | Human Thy-1 glycoprotein: human HRt interacting partner, GenBank AF261093, SEQ ID NO:66/67
3 | M (M = Medium blue in 3-5 days) | Human ankyrin repeat containing protein ASB-2: human HRt interacting partner, GenBank AF159164, SEQ ID NO:38/39
4 | L/VL | Human cDNA FLJ20456 fis clone KAT05827: human HRt interacting partner, GenBank AK000463, SEQ ID NO:74/75
5 | L (L = Low blue in 5-7 days) | Human cDNA: FLJ23187 fis, clone: LNG11989: human HRt interacting partner, GenBank AK026840, SEQ ID NO:78/79
6 | L (L = Low blue in 5-7 days) | Human genomic region containing hypervariable mini satellites Chromosome 10[10q26.3]: human HRt interacting partner, GenBank AL096810, SEQ ID NO:64/65 (NMKNRMMWRVMTLEKTRVNIIQTHLLCLLLIQMK; listed as Homo sapiens)
7 | M (M = Medium blue in 3-5 days) | Human hypothetical protein: human HRt interacting partner, GenBank BC006358, SEQ ID NO:34/35
8 | L (L = Low blue in 5-7 days) | Human pre-B cell colony enhancing factor (PBEF): human HRt interacting partner, GenBank U02020, SEQ ID NO:55
9 | M (M = Medium blue in 3-5 days) | Human synuclein-beta: human HRt interacting partner, GenBank BC002902, SEQ ID NO:18/19 (FCPTPTATPCRNSPGVTSGGPRPCWARLMEVPQERTRTAWCSTPRLPSRSRSSASVMM; listed as Homo sapiens)
10 | L/VL | Human ubiquitin: human HRt interacting partner, GenBank AR075562, SEQ ID NO:70/71 (EKFAPKKQGDGGKDLPTEAKKRAAEFCRGALC; listed as Homo sapiens)
11 | H/M | Human ubiquitous receptor UR: human HRt interacting partner, GenBank E11456, SEQ ID NO:1/2
12 | H (H = Intense blue within 2-3 days) | Human monocyte antigen CD14: human HRt interacting partner, GenBank M86511, SEQ ID NO:14/15 (protein, listed as Homo sapiens) KRINLISQTKRPDRNMSLSRACPCWNGLLTTIKNLELLLEIVTDKSQEGSQFVKGFGGIGGILRYRVDFQGMEYQGGDDEFFDLDDY

The next lines start with the molecule.

Row | Molecule | XGAL (rate and intensity of coloration of colonies on Xgal)
13 | HUMFGF1A Human fibroblast growth factor (FGF) receptor-1 mRNA: interacting partner nucleic acid, homology in a 3'-untranslated region, GenBank M34641, SEQ ID NO:92 | VL (VL = Very Low blue in 10 days)
14 | Human C11 protein: human HRt interacting partner, GenBank X81625, SEQ ID NO:20/21 | M (M = Medium blue in 3-5 days)
15 | Human mRNA for C11ORF25 gene: interacting partner nucleic acid, homology in a 3'-untranslated region, GenBank AJ300461, SEQ ID NO:94 (DNA CTATTCGATGATGAAGATACCCCACCAAACCCA; listed as DNA, chemistry not fully specified; the letters are possibly those of the target site) | VL (VL = Very Low blue in 10 days)
16 | Human tyrosine phosphatase type 1VA, member 2: human HRt interacting partner, GenBank U14603, SEQ ID NO:51/52 | L (L = Low blue in 5-7 days)
17 | Human CGI-106 protein: human HRt interacting partner, GenBank AF151864, SEQ ID NO:28/29 (protein, listed as Homo sapiens) DEDTEGFGVPRHDPLPDPLKVPPPLPDPSSICMVDPEMLPPKTARQTENVSRTRKPLARPNSRAAAPKATPVAAAKTKGLAGGDRASRPLSARSEPSEKGGRAPLSRKSSTPKTATRGPSGSASSRPGVSATPPKSPVYLDLAYLPSGSSAHLVDEEFFQRVRALCYVISGQDQRKEEGMRAVLDALLASKQHWDRDLQVTLIPTFDSVAMHTWYAETHAR | M (M = Medium blue in 3-5 days)
18 | Human small intestine cDNA to mRNA clone HSI10987: human HRt interacting partner, GenBank AK026339, SEQ ID NO:24/25 (protein, listed as Homo sapiens) CPGRSQGPHCWDAGCSGAPQAQVPSVFSFDFAAVLVLLLYPQELTWTQILGPPWSASSSAFGSGKNSSRTFYSQRQSLSFLCPICISSRRDPP | M (M = Medium blue in 3-5 days)
19 | Human sequence from clone RP4-753, chromosome 21q: human HRt interacting partner, GenBank AL031676, SEQ ID NO:12/13 (protein, listed as Homo sapiens) TRSSFRSEATPSEPVLVSVHLSVLPARVQPRGMDRARVAVAAGSLAPPVLPPPIQRLRGCSMFYVFLNEDPSDGSSPIPDSGSPSGPRAAPEHPARLPLT | H (H = Intense blue within 2-3 days)
20 | Human aldolase A: human HRt interacting partner, GenBank M11560, SEQ ID NO:26/27 (protein, listed as Homo sapiens) VSKAVEHINKTIAPALVSKKLNVTEQEKIDKLMIEMDGTENKSKFGANAILGVSLAVCKAGAVEKGVPLYRHIADLAGNSEVILPVPAFNVINGGFSCCNKLAMHEVHDPPSRCSKLQGSLRIGTE | M (M = Medium blue in 3-5 days)
21 | Human vesicle-associated membrane protein 2: human HRt interacting partner, GenBank BC002737, SEQ ID NO:22/23 (protein, listed as Homo sapiens) QGEGKGDGTGSYREGQGPRQQGGHQEAAAAATVCVASLPPPQHPRQLGLAPLPSLHCTLSLKINFQPCLLSTWWVVGMQFGICSTPST | M (M = Medium blue in 3-5 days)
